# Data reported in patent publication US6867193B1, “Amino acid-containing albumin preparation” (Nipro Corporation, priority 1999, dated 2005).
# B1: 1.0% RSA: rat serum albumin (RSA, manufactured by Sigma Corp.), 1.0% final concentration, given alone (protein, UniProt P02770 25-608, looked up)
# Albumin: EAHKSEIAHRFKDLGEQHFKGLVLIAFSQYLQKCPYEEHIKLVQEVTDFAKTCVADENAENCDKSIHTLFGDKLCAIPKLRDNYGELADCCAKQEPERNECFLQHKDDNPNLPPFQRPEAEAMCTSFQENPTSFLGHYLHEVARRHPYFYAPELLYYAEKYNEVLTQCCTESDKAACLTPKLDAVKEKALVAAVRQRMKCSSMQRFGERAFKAWAVARMSQRFPNAEFAEITKLATDVTKINKECCHGDLLECADDRAELAKYMCENQATISSKLQACCDKPVLQKSQCLAEIEHDNIPADLPSIAADFVEDKEVCKNYAEAKDVFLGTFLYEYSRRHPDYSVSLLLRLAKKYEATLEKCCAEGDPPACYGTVLAEFQPLVEEPKNLVKTNCELYEKLGEYGFQNAVLVRYTQKAPQVSTPTLVEAARNLGRVGTKCCTLPEAQRLPCVEDYLSAILNRLCVLHEKTPVSEKVTKCCSGSLVERRPCFSALTVDETYVPKEFKAETFTFHSDICTLPDKEKQIKKQTALAELVKHKPKATEDQLKTVMGDFAQFVDKCCKAADKDNCFATEGPNLVARSKEALA
# System: hepatic encephalopathy model animal
# Experiment: hepatic encephalopathy model rat (partial hepatectomy + ammonium acetate): coma period and plasma ammonia (Test Examples 1-3)
# Type: in vivo
# Settings: for coma period / concentration of ammonia in the blood: mean ± standard error
# Description: A test drug was prepared by dissolving rat serum albumin (RSA, manufactured by Sigma Corp.) in an amino acid solution (components are disclosed in Table 3) to form a 0.1 w/v % or 1.0 w/v % solution, adding 1.0 N hydrochloric acid thereto to adjust the pH to 6.6 to 7.4 according to Preparation Example 3, filling the solution into a 500 ml infusion bottle and heating at 60° C. for 10 hours after sealing the bottle with a rubber plug. In comparison, physiological saline or the amino acid solution (pH 6.6 to 7.4), respectively, was used in the same way.
# Rat partial hepatectomy was carried out by performing a laparotomy of a male SD rat (body weight of 200 to 230 g) under etherization, removing a lateral left lobe, a medial left lobe and a medial right lobe (67%) and closing the abdomen (Archs. Pathol., 1985; 12: 186-202).
# A hepatic encephalopathy model animal was created by administering 2 M ammonium acetate solution at a rate of 3 ml/kg into the rat abdomen after 48 hours from the partial hepatectomy (“Kiso to Rinsho”, 1987; 21: 2509-2527).
# The test drug was injected from the rat tail vein (10 ml/kg) 2 minutes before administering the ammonium solution. Subsequently, the coma period (minutes) was measured, blood was collected from the rat tail vein 30 minutes after administration of the ammonium solution, and the ammonia concentration in the blood plasma was determined by using an ammonia measuring reagent kit (brand name: Determiner NH3, manufactured by Kyowa Medics Corporation).
# A test drug was prepared by dissolving human serum albumin (HSA, manufactured by Sigma Corp.) in the amino acid solution (components are disclosed in Table 3) in the same manner as in Preparation Example 3 to form a desired concentration of the solution (0.001, 0.01, 0.1 or 1.0 w/v %). 6 to 14 male SD rats (body weight 200 to 230 g) as test animals were used per one group, and creation of a hepatic encephalopathy model animal and a test method were carried out in the same manner as Test Example 1. The test drug was injected in an amount of 10 ml/kg from the tail vein.
# A test drug was prepared by dissolving bovine serum albumin (BSA, manufactured by Sigma Corp.) in the amino acid solution (components bare disclosed in Table 3) in the same manner as in Preparation Example 3 to form a desired concentration of the solution (0.1 w/v % or 1.0 w/v %). Creation of a hepatic encephalopathy model animal and a test method were carried out in the same manner as Test Example 1.
Molecule,coma period (Test Example 3 (BSA)),concentration of ammonia in the blood (Test Example 3 (BSA)),"effect on the hepatic encephalopathy (Test Example 1, text on Table 4)","concentration of ammonia in the blood (Test Example 1, blood plasma 30 min after ammonium solution, test drug 10 ml/kg tail vein)","coma period (Test Example 1, male SD rat, test drug 10 ml/kg tail vein 2 min before ammonium acetate)"
"1.0% BSA: bovine serum albumin (BSA, manufactured by Sigma Corp.), 1.0%, given alone",23 ± 3 min,119 ± 10 µmol/dL,–,–,–
B1,–,–,no effect,129 ± 13 µmol/dL,31 ± 5 min
